assay: soluble fraction after stress (log2 fold change); higher = more stays soluble; pooled small domains, quantitative proteomics; conditions: stress: 75 degC
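Also: 20 min heating vs room temperature control held 20 min.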

Sequence | soluble fraction (log2)
HMSMDAVSLANRLLRFFQKRPGRKFTAADLAFETGMNERTGKSLVTSALEILSRTNQIEADGDGFRLKM | 0.0354
HMSMEIQEIIRQLREKNDWSQEDMAERVGLSKNGYAKIERGETNLNLERLEQIANLFDLSVIDLIEMS | -0.764
HMSMEKNWVPSEDVIEILTRAGMNENFIRELIPEFIIYWSERKDVLISYDSKFIEHARLKWAQHNAE | 0.454
HMSMFTPAQVAQTLTVPPSTLRRWAKRFAPFLSPQSGKKRTYTVADLDTFQRIKELSAQGYTFAQIDQAL | -1.32
HMSMLSQERQSLILDIIKEQGSVTVTRLTEILQSSESTVRRDLSYLASKGKINKVHGGATALG | -0.39
HMSMNGNMIHATVIWKGRYFLVKMFFPQLTKPKRAEVQAQIEKAYPGSRVASYHITDYKPGEQFLHV | -1.84
HMSMPEVLSDRELEIFRMIGTGMSTGDIAKKLNISVNTIESHRKKIKDKLGIQKGSELVKAAVQWVSTQQ | -0.741
HMSMSVLFSELDQKDAGVIVEKLKERKIPYELQSGGSAIMVPANVLHETRLQLAAEGLPQSS | -0.0383
HMSMTVHGALRLLQLPTIADRPYTLKEIREAYREQAQNHHPDAGGSADAMRRLNEAYQFLKERYRQA | -0.449
HMSNEKVVKFAQELLVDEERSAISPALISAKIDQVLMFKPAWNEGLDRDAVVNELVRRFSIW | -1.24
HMSNGFFELKTSQQDELIDLIDSHTNFVRTKIEGELITAFLKLPMDAEEFNKLLFTNGIILSHLVKRK | -0.713
HMSNIIGNTAYSAIPDKQYFRLKSETAEKVANYLTENNIPFSGRINGDKTTLTIGQKNVDDYKAAVATVTG | 0.0528
HMSNIVNYEVYVYQNDAWDLLARYPSEKRAEAIEYAKSTEFSLNRPTKVIRETYDLDTQKFQEALIYLSE | -0.743
HMSNLNHSFQYKKNIGRKISLTYLGRDNESISKIYELIDSNDSGILVKNKNVEIFIHYEKIVSAKIKVS | -1.78
HMSNLTDLVSAKEAEVYLHFLESGSTAGMTEAELRAVRKIEELIQSNKIDYNGILRIRNETVK | 0.0216
HMSNNLAYSQFLDRVKNKEIRKVEIRGQSIVGYTSNNETFKTYAPLNDPKMYDELLTNDVQVQVDPP | -0.0765
HMSNQLAVPDVTNMKANAAADRLRQQGLRVELKTESSNTVPRGMAIRTDPAASTMVARGGRVTLIISSGKG | -0.248
HMSNSGFVKNNGKTEFYDASGRQAKSSWINISGKWYYFDLNGTMVTGWQRISNKWYYFLEDGSK | -0.0724
HMSNSMISKDKAMSIALAKVSGATSSNIYIELEKDDGRYTYEGEINFNNKEYEFEIDAYTGNILKWEVDSI | -0.806

Sequence | soluble fraction (log2)
HMSNTPHSREVLLEMDAVRRLLAVGEEKGEVDRADLQGAFEEAELGRGDLDGVLSILREYDVPLAR | 0.0604
HMSNVIYFNYNDYKFLFMGDAGVDKETDILEKYTLSNIDFLKVGHHGSDTSSNKGFIDSIQPKYSLIS | -1.53
HMSNWTILIIQGSAHLIDLDSKITEIDGFGSFPTKILQDYNLNEEFEIFDTNVKMVNSVQSDLQSN | -2.48
HMSNYIVELSSSEKIDDIDNNNNLINSFFSKSDSQWEYKLVFKNKNEMDVFVKKISTNNKIISYKTSS | -1.17
HMSPAETGIYHILVENGKPNRHGLDATNKNENWLRQFLITQNTRLEDVFLLLADDGGGIRFFKSQ | -1.26
HMSPAPVSVDHLAFPTRDLEATDHFYSKVVGATLVHAESGYSPSWKSDYLLITYALPDGTRLSFFDWP | 0.105
HMSPDTREAILAAARTAFARDGYQTSLRGIARDAGVDPALVHHYFPDRATLFAKAVIESTAG | -0.0532
HMSPFAHHLHELRMRHGIRQNELAELIGYDQTYISALEVGLKGPPTPEFVDKLVEGLALSRTEEAALRSAA | -0.483
HMSPFYALDEVDSFLDGVNVERLAALIARQAEQAQFLVVSHRRPMIGASTRTIGVTQARGAHTQVVGLP | -0.312
HMSPGAKIEVTGNTVNLRAGPGTNYDTRGQVKKGEQLPLLGEQGGWYRVQTSRGVAYLAGWLARVLT | -1.43
HMSPLDSHLGRRIALRRQQLNTSAADLEKAISMVPGSVARFEAGRQSLNATQLFTLSRALDVPVLYFFEG | -0.705
HMSPREDQQSRKQHILEAAAVLFAERGYYKTTTADVARAVGVTQPYVFHFFKSKEELYLAVL | 0.163
HMSPSDLSAEAQKVYALLDGRELSFDTLVEESGFDTGSLLAILMRLEMKMLVEHGADQVYRRSG | -1.51
HMSPVKAPLPGVVLDIHVSVGQEVKASDTVVTLEAMKMENAIKAGVDGKVASISVGKGDSVLEGAVLLTI | -0.0893
HMSQAVTMLKAGRLLANSKGTGAAVRDLEPGMLLYPTGQKDGTMWEVEDEMGNKGWVNSTSMQLA | 0.271
HMSQDEKITNYIYEGNKNTQTEAFVEAEKSYRKALSLSPEKPEALYNLGNTHFLDKQYDEASQRFF | 0.0479
HMSQDINVFIKTNPENATIIWDGESKGTNGIFKSNAGAHRLRIEMQGYESIDQDIQVSDKQFSFEYNLKKE | 0.138
HMSQIANLLLSKNIKVNNQNIIYYETVLKYLPNNEKKEFFINAMKNNIYFTEEEIKNFGNIFN | -2.74
HMSQIQIKLDQAIMQLPEKQRFVFMLRYFEELPYEKIAQITETSIGGAKANFHQALKKMQEIIQ | -2.96
